From US20160168251A1 (MorphoSys, published 2016)

How the values were obtained:
[1] = biological target: T1, human NPRA on HEK293 cells bound to ANP (human, UniProt P01160 124-151); assay: cell-based or functional assay
T1 sequence: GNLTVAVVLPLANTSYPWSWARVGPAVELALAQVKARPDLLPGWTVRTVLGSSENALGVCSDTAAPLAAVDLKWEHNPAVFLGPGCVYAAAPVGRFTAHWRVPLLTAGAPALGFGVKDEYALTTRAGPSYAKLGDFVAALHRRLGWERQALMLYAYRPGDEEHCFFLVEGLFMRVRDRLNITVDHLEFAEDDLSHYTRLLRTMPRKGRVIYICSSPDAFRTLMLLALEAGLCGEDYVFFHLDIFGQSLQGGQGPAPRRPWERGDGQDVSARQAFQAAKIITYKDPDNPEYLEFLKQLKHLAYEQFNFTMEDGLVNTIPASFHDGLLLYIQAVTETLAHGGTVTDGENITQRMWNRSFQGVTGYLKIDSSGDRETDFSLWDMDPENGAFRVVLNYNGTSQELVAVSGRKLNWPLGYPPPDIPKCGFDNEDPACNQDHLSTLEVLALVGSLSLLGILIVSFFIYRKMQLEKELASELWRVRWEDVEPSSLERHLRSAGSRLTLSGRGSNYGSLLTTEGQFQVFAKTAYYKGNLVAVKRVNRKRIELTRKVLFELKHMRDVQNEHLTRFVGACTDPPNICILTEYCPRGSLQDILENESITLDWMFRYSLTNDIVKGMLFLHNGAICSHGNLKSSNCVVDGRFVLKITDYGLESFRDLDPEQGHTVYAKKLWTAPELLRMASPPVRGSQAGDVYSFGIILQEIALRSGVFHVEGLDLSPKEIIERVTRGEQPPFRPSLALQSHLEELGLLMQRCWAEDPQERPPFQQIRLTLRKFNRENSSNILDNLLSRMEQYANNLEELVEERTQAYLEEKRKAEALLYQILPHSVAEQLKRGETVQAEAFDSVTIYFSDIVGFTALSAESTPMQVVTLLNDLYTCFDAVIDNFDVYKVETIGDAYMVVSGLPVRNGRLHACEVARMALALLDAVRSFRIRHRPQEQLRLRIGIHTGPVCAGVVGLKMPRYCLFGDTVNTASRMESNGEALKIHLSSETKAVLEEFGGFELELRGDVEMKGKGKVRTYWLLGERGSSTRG
T1 sequence (peptide): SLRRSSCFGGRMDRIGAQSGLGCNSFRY

[2] = biological target: T1, human NPRA on HEK293 cells bound to ANP; assay: FACS, HEK NPRA cells with ANP
[3] = biological target: T2, NPRA-Fc fusion protein bound to ANP (human, UniProt P01160 124-151); assay: SPR (Biacore 3000), NPRA-Fc amine-coupled on CM5, analyte with 100 nM human ANP
T2 construct: mature; Receptor-ligand complex; 'human ANP' is stated for Biacore, plain 'ANP' for ELISA and HXMS; also called NPRA-Fc+ANP

[4] = biological target: T3, human NPRA on HEK293 cells, without added ligand (human, UniProt P16066 33-1061); assay: FACS, HEK NPRA cells without ligand
T3 construct: a signal peptide is not delimited; also called HEK NPRA cells; HEK hNPRA cells
T3 sequence: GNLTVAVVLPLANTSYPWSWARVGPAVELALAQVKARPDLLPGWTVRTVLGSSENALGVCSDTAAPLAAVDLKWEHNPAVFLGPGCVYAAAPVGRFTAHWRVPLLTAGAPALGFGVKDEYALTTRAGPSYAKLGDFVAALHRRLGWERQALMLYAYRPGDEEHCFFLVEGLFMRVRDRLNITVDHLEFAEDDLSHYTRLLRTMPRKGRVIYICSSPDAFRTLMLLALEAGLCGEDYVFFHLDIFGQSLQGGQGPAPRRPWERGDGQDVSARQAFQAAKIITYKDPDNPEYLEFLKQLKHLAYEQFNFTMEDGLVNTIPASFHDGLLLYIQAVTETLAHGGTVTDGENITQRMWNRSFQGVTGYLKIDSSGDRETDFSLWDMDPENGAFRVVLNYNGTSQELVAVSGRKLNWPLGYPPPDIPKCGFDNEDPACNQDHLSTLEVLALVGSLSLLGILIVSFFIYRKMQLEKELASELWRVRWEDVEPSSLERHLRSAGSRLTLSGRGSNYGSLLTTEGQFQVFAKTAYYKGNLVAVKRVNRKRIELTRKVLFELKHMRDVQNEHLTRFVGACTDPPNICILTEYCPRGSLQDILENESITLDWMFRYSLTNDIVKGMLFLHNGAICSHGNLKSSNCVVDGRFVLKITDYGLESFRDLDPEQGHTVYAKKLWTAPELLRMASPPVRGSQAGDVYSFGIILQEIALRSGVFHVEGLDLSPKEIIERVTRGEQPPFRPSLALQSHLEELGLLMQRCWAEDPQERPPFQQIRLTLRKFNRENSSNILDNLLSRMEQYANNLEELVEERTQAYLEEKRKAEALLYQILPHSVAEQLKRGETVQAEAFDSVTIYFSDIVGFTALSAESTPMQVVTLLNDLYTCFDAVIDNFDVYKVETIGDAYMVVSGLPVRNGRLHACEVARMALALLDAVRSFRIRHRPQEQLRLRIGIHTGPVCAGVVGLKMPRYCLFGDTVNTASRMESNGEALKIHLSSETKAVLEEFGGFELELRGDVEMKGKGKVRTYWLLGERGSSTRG

[5] = biological target: T1, human NPRA on HEK293 cells bound to ANP; assay: FACS, HEK NPRA cells with 100 nM ANP, IgG4_Pro format
[6] = biological target: T1, human NPRA on HEK293 cells bound to ANP; assay: cell-based or functional assay; remark: listed apart in the source
[7] = biological target: T4, human NPRC on HEK293 cells in the presence of BNP (human, UniProt P17342 27-541; P16860 103-134); assay: FACS, HEK NPRC cells with 100 nM BNP
T4 construct: whole, on cells;mature; also called HEK NPRC cells + 100 nM BNP
T4 sequence (looked up): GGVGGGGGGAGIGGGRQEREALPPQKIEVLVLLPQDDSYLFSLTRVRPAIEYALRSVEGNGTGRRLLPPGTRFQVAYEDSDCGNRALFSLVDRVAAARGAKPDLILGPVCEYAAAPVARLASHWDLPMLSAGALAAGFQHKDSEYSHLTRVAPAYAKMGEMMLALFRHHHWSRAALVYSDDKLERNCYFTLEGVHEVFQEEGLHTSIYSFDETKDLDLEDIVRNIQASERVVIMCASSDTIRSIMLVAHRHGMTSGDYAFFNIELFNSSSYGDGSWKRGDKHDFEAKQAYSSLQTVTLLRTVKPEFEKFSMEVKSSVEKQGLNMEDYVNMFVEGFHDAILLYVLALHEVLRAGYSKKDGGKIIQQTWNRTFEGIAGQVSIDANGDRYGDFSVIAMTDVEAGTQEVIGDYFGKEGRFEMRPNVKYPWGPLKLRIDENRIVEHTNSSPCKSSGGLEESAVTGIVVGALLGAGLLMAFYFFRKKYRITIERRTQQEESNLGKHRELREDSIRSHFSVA
T4 sequence (peptide, looked up): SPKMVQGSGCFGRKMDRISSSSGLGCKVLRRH
Protocol: (§1) HEK NPRA cells are detached with Accutase (PAA Laboratories GmbH, Cat. No. L11-007, Austria), harvested by centrifugation (900 rpm, 4 minutes) and resuspended in FACS buffer (PBS/3% FCS/0.02% NaN3) to a final concentration of 10⁶ cells/ml. 100 μl of the cell suspension is transferred to each well of a 96 round bottom plate (TC Microwell 96U, Nunc). […] Cells are washed in 150 μl of FACS buffer, pelleted and resuspended in 50 μl of the solution containing the primary antibody comprising a BEL extract of Fabs, a diluted BEL extract or purified antibody diluted in FACS buffer and incubated on ice for 30 min. Cells are washed again in FACS buffer and resuspended in 50 μl of FACS buffer containing the secondary antibody (R-Phycoerythrin-conjugated Affipure F(ab′)₂ Fragment Goat Anti-Human IgG, Dianova) and incubated on ice for 45 min. Cells are washed twice with FACS buffer and resuspended in 200 μl of FACS buffer for analysis in the FACS Array (BD Biosciences).

[8] = biological target: T1, human NPRA on HEK293 cells bound to ANP; assay: FACS, IgG4_Pro on HEK NPRA cells in the presence of 100 nM ANP
Protocol: as §1

[9] = biological target: T5, human NPRB on HEK293 cells in the presence of CNP (human, UniProt P20594 23-1047; P23582 105-126); assay: FACS, HEK NPRB cells with 100 nM CNP
T5 construct: whole, on cells;mature; also called HEK NPRB cells + 100 nM CNP
Protocol: as §1

[10] = biological target: T6, human NPRC on HEK293 cells in the presence of ANP (human, UniProt P17342 27-541; P01160 124-151); assay: FACS, HEK NPRC cells with 100 nM ANP
T6 construct: whole, on cells;mature; also called HEK NPRC cells + 100 nM ANP
T6 sequence (looked up): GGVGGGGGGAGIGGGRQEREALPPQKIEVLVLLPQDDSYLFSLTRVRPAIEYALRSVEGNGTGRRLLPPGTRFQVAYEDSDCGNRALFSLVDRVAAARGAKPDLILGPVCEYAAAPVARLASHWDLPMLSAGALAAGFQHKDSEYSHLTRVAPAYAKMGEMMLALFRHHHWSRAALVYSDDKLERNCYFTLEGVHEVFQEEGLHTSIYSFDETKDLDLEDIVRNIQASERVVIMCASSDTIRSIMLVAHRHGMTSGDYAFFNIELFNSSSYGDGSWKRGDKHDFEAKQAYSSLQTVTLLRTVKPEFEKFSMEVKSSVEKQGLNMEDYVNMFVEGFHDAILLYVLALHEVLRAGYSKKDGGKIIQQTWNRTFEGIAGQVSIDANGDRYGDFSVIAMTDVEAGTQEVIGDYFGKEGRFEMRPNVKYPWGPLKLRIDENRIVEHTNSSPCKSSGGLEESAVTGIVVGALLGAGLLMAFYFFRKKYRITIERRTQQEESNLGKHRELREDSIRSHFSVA
T6 sequence (peptide, looked up): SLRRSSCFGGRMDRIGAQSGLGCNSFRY
Protocol: as §1

[11] = biological target: T7, human NPRC on HEK293 cells, without added ligand (human, UniProt P17342 27-541); assay: FACS, HEK NPRC cells without ligand
T7 construct: whole, on cells; also called HEK NPRC cells; natriuretic peptide receptor C
T7 sequence (looked up): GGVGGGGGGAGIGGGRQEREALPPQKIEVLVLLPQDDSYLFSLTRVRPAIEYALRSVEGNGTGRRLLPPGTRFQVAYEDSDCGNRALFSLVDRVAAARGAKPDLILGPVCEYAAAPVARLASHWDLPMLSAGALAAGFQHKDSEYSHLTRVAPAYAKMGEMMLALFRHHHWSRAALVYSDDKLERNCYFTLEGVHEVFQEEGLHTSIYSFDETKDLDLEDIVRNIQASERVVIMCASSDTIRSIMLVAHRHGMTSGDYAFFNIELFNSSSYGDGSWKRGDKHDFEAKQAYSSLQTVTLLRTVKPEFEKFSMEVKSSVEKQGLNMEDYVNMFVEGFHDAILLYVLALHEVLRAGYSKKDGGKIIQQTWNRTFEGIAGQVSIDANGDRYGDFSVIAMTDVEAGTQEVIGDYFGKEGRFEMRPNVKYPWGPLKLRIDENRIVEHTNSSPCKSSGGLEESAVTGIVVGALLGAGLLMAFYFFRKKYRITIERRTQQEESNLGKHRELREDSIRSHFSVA
Protocol: as §1

[12] = biological target: T8, human NPRB on HEK293 cells, without added ligand (human, UniProt P20594 23-1047); assay: FACS, HEK NPRB cells without ligand
T8 construct: whole, on cells; also called HEK NPRB cells; natriuretic peptide receptor B
T8 sequence (looked up): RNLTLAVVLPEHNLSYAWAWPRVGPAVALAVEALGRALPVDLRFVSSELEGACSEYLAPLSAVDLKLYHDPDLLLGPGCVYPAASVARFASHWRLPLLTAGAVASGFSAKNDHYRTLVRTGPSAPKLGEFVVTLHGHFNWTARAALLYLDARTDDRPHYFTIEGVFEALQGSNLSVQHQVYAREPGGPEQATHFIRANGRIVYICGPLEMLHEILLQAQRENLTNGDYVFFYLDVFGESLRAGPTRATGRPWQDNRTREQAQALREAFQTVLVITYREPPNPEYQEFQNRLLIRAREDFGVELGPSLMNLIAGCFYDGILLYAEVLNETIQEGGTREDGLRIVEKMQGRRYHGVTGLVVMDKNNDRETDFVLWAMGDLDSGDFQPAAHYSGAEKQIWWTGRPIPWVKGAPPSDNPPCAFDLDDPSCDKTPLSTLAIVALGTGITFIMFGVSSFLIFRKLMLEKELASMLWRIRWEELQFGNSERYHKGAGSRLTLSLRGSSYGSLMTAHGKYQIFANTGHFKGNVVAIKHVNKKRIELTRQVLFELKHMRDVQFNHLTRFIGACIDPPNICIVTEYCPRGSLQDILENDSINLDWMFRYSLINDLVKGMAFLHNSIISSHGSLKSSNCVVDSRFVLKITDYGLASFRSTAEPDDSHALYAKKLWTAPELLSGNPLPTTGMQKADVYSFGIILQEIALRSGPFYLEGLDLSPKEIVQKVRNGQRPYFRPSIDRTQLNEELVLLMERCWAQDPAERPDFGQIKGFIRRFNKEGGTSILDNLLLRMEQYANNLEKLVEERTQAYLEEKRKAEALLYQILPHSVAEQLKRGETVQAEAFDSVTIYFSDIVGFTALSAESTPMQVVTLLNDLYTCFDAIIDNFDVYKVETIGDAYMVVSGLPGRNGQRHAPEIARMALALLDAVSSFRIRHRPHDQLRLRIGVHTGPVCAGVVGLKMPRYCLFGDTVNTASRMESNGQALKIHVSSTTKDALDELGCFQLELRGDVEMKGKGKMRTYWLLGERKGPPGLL
Protocol: as §1

T5 sequence (P23582 105-126 limits assumed, one chain of several): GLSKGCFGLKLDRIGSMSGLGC

B1: 5502 Fab (Fab, V domains shown)
VH: QVQLQQSGPGLVKPSQTLSLTCAISGDSVSSRSASWSWIRQSPGRGLEWLGRIYYRSKWYNDYAVSVKSRITINPDTSKNQFSLQLNSVTPEDTAVYYCARMDVPSFRYFDVWGQGTLVTVSS
VL: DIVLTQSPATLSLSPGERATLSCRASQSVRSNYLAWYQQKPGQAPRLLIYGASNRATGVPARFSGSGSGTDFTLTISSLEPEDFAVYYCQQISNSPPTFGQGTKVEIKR
EC50 of ANP, cGMP production in HEK NPRA cells, with 400 nM Fab [1]: 0.3 nM
factor by which the potency of ANP is enhanced (cGMP, 400 nM Fab) [1]: 10 fold

B2: 5064 IgG1 (antibody, V domains shown)
VH: QVQLQQSGPGLVKPSQTLSLTCAISGDSVSSRSASWSWIRQSPGRGLEWLGRIYYRSKWYNDYAVSVKSRITINPDTSKNQFSLQLNSVTPEDTAVYYCARMDVPSFRYFDVWGQGTLVTVSS
VL: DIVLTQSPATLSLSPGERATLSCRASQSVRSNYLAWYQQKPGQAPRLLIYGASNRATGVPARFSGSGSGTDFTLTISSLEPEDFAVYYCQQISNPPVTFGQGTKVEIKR
notes: Human IgG1 format
EC50 (read off the curve) [2]: ~0.5 nM

B3: 5591 Fab (Fab, V domains shown)
VH: QVQLQQSGPGLVKPSQTLSLTCAISGDSVSSRSASWSWIRQSPGRGLEWLGRTYYRSHWYYEYAQSVKSRITINPDTSKNQFSLQLNSVTPEDTAVYYCARMDVPSFRYFDVWGQGTLVTVSS
VL: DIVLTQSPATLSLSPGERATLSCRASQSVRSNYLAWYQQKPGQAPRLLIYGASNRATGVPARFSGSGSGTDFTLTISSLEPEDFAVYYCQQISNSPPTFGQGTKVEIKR
Kd [3]: 1.16 nM
koff [3]: 0.00103 s⁻¹
kon [3]: 884000 M⁻¹ s⁻¹

B4: 5504 IgG4_Pro (antibody, V domains shown)
VH: QVQLQQSGPGLVKPSQTLSLTCAISGDSVSSRSASWSWIRQSPGRGLEWLGRIYYRSKWYNDYAVSVKSRITINPDTSKNQFSLQLNSVTPEDTAVYYCARMDVPSFRYFDVWGQGTLVTVSS
VL: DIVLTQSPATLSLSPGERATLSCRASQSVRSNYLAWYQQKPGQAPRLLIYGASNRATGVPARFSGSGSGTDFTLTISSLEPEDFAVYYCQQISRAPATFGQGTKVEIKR
notes: Human IgG4_Pro
binding result [4]: no binding (tested: 20 nM)
EC50 (read off the curve) [5]: ~0.5 nM
cGMP EC50 (nM), titration of the antibody on HEK NPRA cells with 200 pM ANP [6]: 1.2 nM
binding result [7]: no binding (tested: 20 nM)
EC50 [8]: 0.56 nM
binding result [9]: no binding (tested: 20 nM)
binding result [10]: no binding (tested: 20 nM)
binding result [11]: no binding (tested: 20 nM)
fold increase in the potency of ANP (cGMP, HEK NPRA cells, 200 nM IgG4_Pro) [1]: ≤ 10 fold
binding result [12]: no binding (tested: 20 nM)
